Data: patent publication US20210188968A1 (AB2 BIO, published 2021)
Where a chain is given by its changes, count along the chain named.

T1: recombinant human interleukin-18 (human, UniProt Q14116 37-193)
T1 construct: Commercially available recombinant human IL-18; also called IL-18; free IL-18
T1 sequence (looked up): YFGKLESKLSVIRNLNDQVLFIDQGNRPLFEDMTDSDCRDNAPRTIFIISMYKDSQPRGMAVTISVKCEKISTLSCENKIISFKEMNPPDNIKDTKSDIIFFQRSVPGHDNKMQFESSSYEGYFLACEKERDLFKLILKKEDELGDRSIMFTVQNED

T2: IL-18/IL-18BP complex (human, UniProt Q14116 37-193)
T2 construct: Non-covalent 1:1 complex; In the third screening step IL-18BP was linked to Luminex beads and then complexed to IL-18; also called IL-18 previously complexed to IL-18BP; complex IL-18-IL-18BP
T2 sequence 1: T1 sequence (looked up)
T2 sequence 2: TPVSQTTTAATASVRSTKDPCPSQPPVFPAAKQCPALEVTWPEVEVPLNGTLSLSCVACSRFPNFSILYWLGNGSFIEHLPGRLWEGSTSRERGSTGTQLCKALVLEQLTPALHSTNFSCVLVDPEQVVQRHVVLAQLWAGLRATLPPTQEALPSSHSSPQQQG

B1: Antibody 107C6 (antibody, V domains shown)
VH: QIQLVQSGPELKKPGETVKLSCRASGYTFTNYGMNWVKQAPGKGLKWMGWINTYSGVPTYADDFKGQFAFSLETSAATAFLQINNLKDEDTATYFCAREGYSTTRSMDYWGQGTSVTVSS
VL: DIVMSQSPSSLAVSAGEKVTMSCKSSQSLLDSRTRKNYLVWYQQKPGQSPKLLIYWASTRGSGVPDRFTGSGSGTDFTLTISSVQAEDLAVYYCKQSYNLRTFGGGTKLEIK
notes: Mouse hybridoma monoclonal antibody; also called clone #107C6
B2: Antibody 108F8 (antibody, V domains shown)
VH: B1 VH with E10D, L11S
VL: B1 VL
notes: Mouse hybridoma monoclonal antibody
B3: Antibody 109A6 (antibody, V domains shown)
VH: EVQLQQSGAELVKPGASVKLSCTASGFKIKDTYIHWVIQRPAQGLEWIGRIDPANGNTIYGSKFQGKATLTADTSSNTAYIHLSSLTSGDSAVYYCAGYVWFAYWGQGTLVTVSA
VL: DVVMTQVPLSLPVSLGDQASISCRSSQRLVHSNGNTYLHWFLQKPGQSPKLLIYTVSNRFSGVPDRFSGSGSGTDFTLKISRVEAEDLGVYFCSQSTLVPWTFGGGTKLEIK
notes: as for B2
B4: Antibody 132H4 (antibody, V domains shown)
VH: EVKLVESGGGLVKPGGSLKLSCAASGFTFSNYAMSWVRQNPAKRLEWVATISSGGANIYYPDSVKGRFIISRDNARNTLYLQMSSLRSEDTAMYYCARGDYFNHFWFAYWGQGTLVTVSA
VL: DVLMTQTPLSLPVSLGDQASISCRSSQSIVHSNGNTYLEWYLQKPGQSPKFLIYKVSNRFSGVPDRFSGSGSGTDFTLKINRVEAEDLGIYYCFQGSHVPWTFGGGTKLEIK
notes: as for B2
B5: Antibody 131B4-2 (antibody, V domains shown)
VH: B3 VH with V37L, I38K, A42E, L70I, H82Q, S91T, Y95F
VL: DAVLTQTPLSLPVSLGDQASISCTSSQSLVHSNGNTYLHWYLQKPGQSPKLLIYKVSDRFSGVPDRFSGSGSGTDFTLMITRVEAEDLGVYFCSQSSLVPWTFGGGTKLEVK
notes: Mouse monoclonal antibody obtained on clone dilution
B6: recombinant human IL-18 Binding Protein (r-hIL-18BP), isoform a (other)
chain: T2 sequence 2
notes: It was biotinylated in the second screening step and linked to Luminex beads in the third; also called human IL-18BP; IL-18BPa

target: T1, recombinant human interleukin-18; assay: Luminex, antibody on IL-18 beads
Method: Following immunization, B cells were isolated from spleen and hybridized following standard hybridoma technology. […] The screening was performed in 3 sequential and selective steps: [1253] First step. […] [1254] Second step. […] For this, monoclonal antibodies were bound to Luminex beads carrying IL-18. […] [1255] Third step.

Going from B1 to B2, the Fluorescence intensity falls from 26200 fluorescence intensity to 25100 fluorescence intensity.

First: B3
Second: B4
The Fluorescence intensity of the first is higher: 25800 fluorescence intensity for the first, 23800 fluorescence intensity for the second.

target: T1, recombinant human interleukin-18; assay: Luminex, biotinylated IL-18BP (competitor) on IL-18 beads pre-complexed with the antibody

First: B1
Second: B2
The “Fluorescence intensity of IL-18BP binding” value of the first is higher: 1390 fluorescence intensity for the first, 1290 fluorescence intensity for the second.

Compared with B3, B4 is higher in “Fluorescence intensity of IL-18BP binding” value: 913 fluorescence intensity for the first, 1490 fluorescence intensity for the second.

target: T2, IL-18/IL-18BP complex; assay: Luminex, third screening against first screening

B1 and B2 cannot be ordered by “fold inhibition of binding on IL-18 complexed to IL-18BP against binding on IL-18” value: greater than 500 fold for the first, greater than 500 fold for the second.

B3 and B4 cannot be ordered by “fold inhibition of binding on IL-18 complexed to IL-18BP against binding on IL-18” value: greater than 500 fold for the first, greater than 500 fold for the second.

target: T1, recombinant human interleukin-18; assay: after clone dilution; method not detailed

B5: binds.

target: T2, IL-18/IL-18BP complex; assay: Luminex, antibody on IL-18 presented by IL-18BP-linked beads

First: B1
Second: B2
The Fluorescence intensity of the first is lower: 33 fluorescence intensity for the first, 45 fluorescence intensity for the second.

Compared with B3, B4 is lower in Fluorescence intensity: 33 fluorescence intensity for the first, 28 fluorescence intensity for the second.

target: T1, recombinant human interleukin-18; assay: free IL-18 ELISA (IL-18BP-coated plate); 400 pg/mL IL-18 in PBS/5% BSA spiked with 0-10000 pg/mL IL-18BP
Method: A description of the purification protocol is provided in section 6.6.2. Plates are incubated for a period of time at 4° C. and then stabilized with a blocking buffer containing bovine serum albumin or other appropriate blocking agents. Once the reaction is finished, microplates are sealed and stored at 4° C. until used for detection of free IL-18. Microplates can also be dried in a stabilizing solution allowing storage at room temperature and then be reconstituted by hydration when needed for assay.

In the case of B6, the “molar ratio IL-18BP/IL-18 at which free IL-18 is near background” value is reported as roughly 15 fold.

target: T1, recombinant human interleukin-18; assay: titration of antibody with a defined IL-18 molarity; KD from EC50 by Law of Mass Action
Method: (§1) The respective KD values of each monoclonal antibody was calculated following titration of the antibodies with a defined IL-18 molarity and derived from the obtained EC₅₀ values with the Law of Mass Action (see above).

B1 and B2 cannot be ordered by Kd: less than 2 pM for the first, less than 2 pM for the second.

Going from B3 to B4, the Kd falls from 10 pM to 5 pM (2-fold). The second binds more tightly here.

target: T1, recombinant human interleukin-18; assay: competition in solution: 400 pg/ml IL-18 spiked with rising IL-18BP; remaining free IL-18 detected by ELISA with plate-bound IL-18BP as capture

B6 was tested, and the “IC50 (read off the curve)” value was roughly 2 ng/mL.

target: T1, recombinant human interleukin-18; assay: titration of antibody with a defined IL-18 molarity; KD from EC50 by Law of Mass Action; mean
Method: as §1

B1 and B2 cannot be ordered by Kd: less than 2 pM for the first, less than 2 pM for the second.

First: B3
Second: B4
The Kd of the first is 2-fold higher: 10 pM for the first, 5 pM for the second. The second binds more tightly here.
